# B1: Histone acetyltransferase KAT8 (Homo sapiens), Q9H7Z6 (parent)
# chain: MAAQGAAAAVAAGTSGVAGEGEPGPGENAAAEGTAPSPGRVSPPTPARGEPEVTVEIGETYLCRRPDSTWHSAEVIQSRVNDQEGREEFYVHYVGFNRRLDEWVDKNRLALTKTVKDAVQKNSEKYLSELAEQPERKITRNQKRKHDEINHVQKTYAEMDPTTAALEKEHEAITKVKYVDKIHIGNYEIDAWYFSPFPEDYGKQPKLWLCEYCLKYMKYEKSYRFHLGQCQWRQPPGKEIYRKSNISVYEVDGKDHKIYCQNLCLLAKLFLDHKTLYFDVEPFVFYILTEVDRQGAHIVGYFSKEKESPDGNNVACILTLPPYQRRGYGKFLIAFSYELSKLESTVGSPEKPLSDLGKLSYRSYWSWVLLEILRDFRGTLSIKDLSQMTSITQNDIISTLQSLNMVKYWKGQHVICVTPKLVEEHLKSAQYKKPPITVDSVCLKWAPPKHKQVKLSKK
# B2: Histone acetyltransferase ESA1 (Saccharomyces cerevisiae), Q08649 (parent)
# chain: MSHDGKEEPGIAKKINSVDDIIIKCQCWVQKNDEERLAEILSINTRKAPPKFYVHYVNYNKRLDEWITTDRINLDKEVLYPKLKATDEDNKKQKKKKATNTSETPQDSLQDGVDGFSRENTDVMDLDNLNVQGIKDENISHEDEIKKLRTSGSMTQNPHEVARVRNLNRIIMGKYEIEPWYFSPYPIELTDEDFIYIDDFTLQYFGSKKQYERYRKKCTLRHPPGNEIYRDDYVSFFEIDGRKQRTWCRNLCLLSKLFLDHKTLYYDVDPFLFYCMTRRDELGHHLVGYFSKEKESADGYNVACILTLPQYQRMGYGKLLIEFSYELSKKENKVGSPEKPLSDLGLLSYRAYWSDTLITLLVEHQKEITIDEISSMTSMTTTDILHTAKTLNILRYYKGQHIIFLNEDILDRYNRLKAKKRRTIDPNRLIWKPPVFTASQLRFAW
# Variants of: B1
# Conditions: with h4_yeast HHF1, P02309
row,Variant,effect of a mutation on the interaction
1,MAAQGAAAAVAAGTSGVAGEGEPGPGENAAAEGTAPSPGRVSPPTPARGEPEVTVEIGETYLCRRPDSTWHSAEVIQSRVNDQEGREEFYVHYVGFNRRLDEWVDKNRLALTKTVKDAVQKNSEKYLSELAEQPERKITRNQKRKHDEINHVQKTYAEMDPTTAALEKEHEAITKVKYVDKIHIGNYEIDAWYFSPFPEDYGKQPKLWLCEYCLKYMKYEKSYRFHLGQCQWRQPPGKEIYRKSNISVYEVDGKDHKIYCQNLCLLAKLFLDHATLYFDVEPFVFYILTEVDRQGAHIVGYFSKEKESPDGNNVACILTLPPYQRRGYGKFLIAFSYELSKLESTVGSPEKPLSDLGKLSYRSYWSWVLLEILRDFRGTLSIKDLSQMTSITQNDIISTLQSLNMVKYWKGQHVICVTPKLVEEHLKSAQYKKPPITVDSVCLKWAPPKHKQVKLSKK [K274A],disrupting interaction

# Variants of: B1
# Conditions: with h4_yeast HHF1, P02309
# Remark: another data set of the same source
row,Variant,effect of a mutation on the interaction
1,MAAQGAAAAVAAGTSGVAGEGEPGPGENAAAEGTAPSPGRVSPPTPARGEPEVTVEIGETYLCRRPDSTWHSAEVIQSRVNDQEGREEFYVHYVGFNRRLDEWVDKNRLALTKTVKDAVQKNSEKYLSELAEQPERKITRNQKRKHDEINHVQKTYAEMDPTTAALEKEHEAITKVKYVDKIHIGNYEIDAWYFSPFPEDYGKQPKLWLCEYCLKYMKYEKSYRFHLGQCQWRQPPGKEIYRKSNISVYEVDGKDHKIYCQNLCLLAKLFLDHRTLYFDVEPFVFYILTEVDRQGAHIVGYFSKEKESPDGNNVACILTLPPYQRRGYGKFLIAFSYELSKLESTVGSPEKPLSDLGKLSYRSYWSWVLLEILRDFRGTLSIKDLSQMTSITQNDIISTLQSLNMVKYWKGQHVICVTPKLVEEHLKSAQYKKPPITVDSVCLKWAPPKHKQVKLSKK [K274R],disrupting interaction

# Variants of: B2
# Conditions: with h4_yeast HHF1, P02309
row,Variant,effect of a mutation on the interaction
1,MSHDGKEEPGIAKKINSVDDIIIKCQCWVQKNDEERLAEILSINTRKAPPKFYVHYVNYNKRLDEWITTDRINLDKEVLYPKLKATDEDNKKQKKKKATNTSETPQDSLQDGVDGFSRENTDVMDLDNLNVQGIKDENISHEDEIKKLRTSGSMTQNPHEVARVRNLNRIIMGKYEIEPWYFSPYPIELTDEDFIYIDDFTLQYFGSKKQYERYRKKCTLRHPPGNEIYRDDYVSFFEIDGRKQRTWCRNLCLLSKLFLDHQTLYYDVDPFLFYCMTRRDELGHHLVGYFSKEKESADGYNVACILTLPQYQRMGYGKLLIEFSYELSKKENKVGSPEKPLSDLGLLSYRAYWSDTLITLLVEHQKEITIDEISSMTSMTTTDILHTAKTLNILRYYKGQHIIFLNEDILDRYNRLKAKKRRTIDPNRLIWKPPVFTASQLRFAW [K262Q],decreasing interaction

# Variants of: B2
# Conditions: with h4_yeast HHF1, P02309
# Remark: another data set of the same source
row,Variant,effect of a mutation on the interaction
1,MSHDGKEEPGIAKKINSVDDIIIKCQCWVQKNDEERLAEILSINTRKAPPKFYVHYVNYNKRLDEWITTDRINLDKEVLYPKLKATDEDNKKQKKKKATNTSETPQDSLQDGVDGFSRENTDVMDLDNLNVQGIKDENISHEDEIKKLRTSGSMTQNPHEVARVRNLNRIIMGKYEIEPWYFSPYPIELTDEDFIYIDDFTLQYFGSKKQYERYRKKCTLRHPPGNEIYRDDYVSFFEIDGRKQRTWCRNLCLLSKLFLDHATLYYDVDPFLFYCMTRRDELGHHLVGYFSKEKESADGYNVACILTLPQYQRMGYGKLLIEFSYELSKKENKVGSPEKPLSDLGLLSYRAYWSDTLITLLVEHQKEITIDEISSMTSMTTTDILHTAKTLNILRYYKGQHIIFLNEDILDRYNRLKAKKRRTIDPNRLIWKPPVFTASQLRFAW [K262A],disrupting interaction

# Variants of: B2
# Conditions: with h4_yeast HHF1, P02309
# Remark: another data set of the same source
row,Variant,effect of a mutation on the interaction
1,MSHDGKEEPGIAKKINSVDDIIIKCQCWVQKNDEERLAEILSINTRKAPPKFYVHYVNYNKRLDEWITTDRINLDKEVLYPKLKATDEDNKKQKKKKATNTSETPQDSLQDGVDGFSRENTDVMDLDNLNVQGIKDENISHEDEIKKLRTSGSMTQNPHEVARVRNLNRIIMGKYEIEPWYFSPYPIELTDEDFIYIDDFTLQYFGSKKQYERYRKKCTLRHPPGNEIYRDDYVSFFEIDGRKQRTWCRNLCLLSKLFLDHRTLYYDVDPFLFYCMTRRDELGHHLVGYFSKEKESADGYNVACILTLPQYQRMGYGKLLIEFSYELSKKENKVGSPEKPLSDLGLLSYRAYWSDTLITLLVEHQKEITIDEISSMTSMTTTDILHTAKTLNILRYYKGQHIIFLNEDILDRYNRLKAKKRRTIDPNRLIWKPPVFTASQLRFAW [K262R],disrupting interaction

# — IntAct's records for PubMed 22020126
